Holding throughout (assay): purified protein
Type in all cases: biochemical, Dictyoglomus thermophilum
Details in all cases: 25 mM Tris-HCl pH 8, 0.05% Triton X-100, 75°C (standard reaction), substrate 0.1 to 1 mM

Substrate in series [1]: CCCC(=O)Oc1ccc([N+](=O)[O-])cc1
Substrate in series [2]: CCCCCCCCCCCC(=O)Oc1ccc([N+](=O)[O-])cc1
Substrate in series [3]: CC(=O)Oc1ccc([N+](=O)[O-])cc1
Substrate in series [4]: CCCCCCCC(=O)Oc1ccc([N+](=O)[O-])cc1
Substrate in series [5]: CCCCCCCCCC(=O)Oc1ccc([N+](=O)[O-])cc1

For orientation: Km means the substrate concentration at which the rate is half of its maximum. The term Vmax denotes the rate approached at saturating substrate. Usually kcat stands for the number of substrate molecules converted per active site and unit of time at saturation. By kcat/Km is commonly meant the second-order rate constant that governs catalysis at low substrate concentration.

B1: EstDZ3 (Dictyoglomus thermophilum) (protein)
chain: MTENREPVVLKNQGQKIFGVIHIPEKTPAPFVLFCHGFTGTKIEPHRIFVKTAEALAKEGIGALRIDFRGSGDSEGSFKDMTVEGEVSDAMVAIEYLSQNNLVDKEKIGILGLSMGGAVASITSGRNPLIKSCVLWSAVCHFDIFFNRSPEEVSRIKDYGDFIDLGGNPVGKKFLSEIVNIKPLEEIKKRSIPVLIIHGSGDMVVPIQHAYDYFNGLKDTHKVKLEIIEGADHTFNSIEWEEKVIEKTVNWFKETL
notes: full-length ORF, 256 residues (modelled 1 to 256), no signal peptide; pLATE52 poly-histidine tag kept; E. coli BL21(DE3); heat treatment and Ni-NTA; forward primer encodes MTENREP
As for B1, the Km in “purified protein [1]” is 150 ± 20 µM; in “purified protein [2]” it was 610 ± 140 µM; in the series “purified protein [3]”, 300 ± 70 µM; in “purified protein [4]”, 190 ± 10 µM; in “purified protein [5]”, 170 ± 10 µM. For the same protein, the Vmax in “purified protein [1]” is 906 µmol/min/mg; in “purified protein [2]”, 357 µmol/min/mg; in the series “purified protein [3]”, 355 µmol/min/mg; in “purified protein [4]”, 501 µmol/min/mg; in “purified protein [5]”, 387 µmol/min/mg. The kcat worked out at 1890 s⁻¹ in the series “purified protein [1]”; 743 s⁻¹ in “purified protein [2]”; 740 s⁻¹ in “purified protein [3]”; 104 s⁻¹ in the series “purified protein [4]”; 80 s⁻¹ in “purified protein [5]”. Also, the kcat/Km in “purified protein [1]” worked out at 1.25e+07 M⁻¹ s⁻¹; in “purified protein [2]”, 1.27e+06 M⁻¹ s⁻¹; in the series “purified protein [3]”, 2.43e+06 M⁻¹ s⁻¹; in “purified protein [4]” it was 557000 M⁻¹ s⁻¹; in the series “purified protein [5]” it was 471000 M⁻¹ s⁻¹.

Values taken from publication PMC5110521, “EstDZ3: A New Esterolytic Enzyme Exhibiting Remarkable Thermostability” (Frontiers in Microbiology, 2016).
